According to the nanobody polyreactivity screen of Harvey et al. (2022):

Experiment: yeast display, Sf9 membrane polyspecificity reagent, FACS + sequencing; frameworks hold sequencing errors
How it was run: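 Sorting gates, low and high (top ~1%), were placed on anti-HA fluorescence to track expression and on streptavidin fluorescence to track reagent binding. A clone's polyreactivity label is taken from the gate it came out of. The reagent was 10% biotinylated, detergent-solubilized Sf9 membrane, applied for 1 hour at 4 °C to galactose-induced yeast display cells.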

Sequence | polyreactivity (PSR sort gate)
QVQLVESGGGLVQAGGSLRLSCAASGSTFYRYAMGWYRQAPGKERELVAAITRGGGRTYYADSVKGRFTISRDNAKNTVYLQMNSLKPEDTAVYYCNAASPYYDSWGQGTQVTVSS | high polyreactivity
QVQLVESGGGLVQAGGSLRLSCAASGSTFYRYAMGWYRQAPGKERELVADITRSGDSTYYADSVKGRFTISRDNAKNTVYLQMNSLKPEDTAVYYCAREYPTIRYRLGYWGQGTQVTVSS | low polyreactivity
QVQLVESGGGLVQAGGSLRLSCAASGSTFYRYAMGWYRQAPGKERELVASLTGSGGRTYYADSVKGRFTISRDNAKNTVYLQMNSLKPEDTAVYYCAARLYVRSVIGNAIVKYDYWGQGTQVTVSS | high polyreactivity
QVQLVESGGGLVQAGGSLRLSCAASGSTFYRYTMRWYRQAPGKERELVASIRWTGGRTNYADSVKGRFTISRDNAKNTVYLQMNSLKPEDTAVYYCAAYLKYPYAASYGSWGQGTQVTVSS | high polyreactivity
QVQLVESGGGLVQAGGSLRLSCAASGSTFYSNAMGWYRQAPGKERELVAAIDWGGGSTYYADSVKGRFTISRDNAKNTVYLQMNSLKPEDTAVYYCATDANGYYNYDYWGQGTQVTVSS | low polyreactivity
QVQLVESGGGLVQAGGSLRLSCAASGSTFYSNAMGWYRQAPGKERELVAGIDTSDGSTNYADSVKGRFTISRDHAMNTVYLQMNSLKPEDTAVYYCAADYTQPGFVSYDYWGQGSQVTVSS | low polyreactivity
QVQLVESGGGLVQAGGSLRLSCAASGSTFYSNAMGWYRQAPGKERELVASIRFSGVITTYADSVKGRFTISRDNAKNTVYLQMNSLKPEDTAVYYWAAGYLSTTAYDYWGQGTQVTVSS | low polyreactivity
QVQLVESGGGLVQAGGSLRLSCAASGSTFYSNVMGWYTQATGKEREFVAGISGSGGSTYYADSVKGRFTISRDNAKNTVYLQMNSLKPDDTAVYYCAKYRYSRYFRYDYWGQGTQVTVSS | high polyreactivity
QVQLVESGGGLVQAGGSLRLSCAASGSTFYSYAMGWYRQAPGKERELVAAIDSGGSTYYADTVKGRFTISRDNAKTTVYLQKNSLKPEDTAVYYCAVRVTSYYRTKDYWGQGTQVTVSS | low polyreactivity
QVQLVESGGGLVQAGGSLRLSCAASGSTFYSYAMGWYRQAPGKERELVAAIDWSGDNTNYADSVKGRFTISRDNAKNTVYLQMNSLKPEDTAVYYCAAVYSYYRLYAYPAYYYWGQGTQVTVSS | low polyreactivity
QVQLVESGGGLVQAGGSLRLSCAASGSTFYSYAMGWYRQAPGKERELVAAITKGGGSTYYADSVKGRFTISRDNAKNTVYLQMNSLIPEDTAVYYCAAPGLYWYYTRSVYDYWGQGTQVTVSS | high polyreactivity
QVQLVESGGGLVQAGGSLRLSCAASGSTFYSYAMGWYRQAPGKERELVAAITSGGSTNYADSVKGRFTISRDNAKNTVYLQMNSLKPEDTAVYYCAAVVSTVDGMEYWGQGTQVTVSS | low polyreactivity
QVQLVESGGGLVQAGGSLRLSCAASGSTFYTNAMGWDRPAPGKEREVVAAISWSGSSTYADSVKGRFTISRDNAKNTVYLQMNSLKPEDTAVYYCAADWFKLRTDYYWGQGTQVTVSS | low polyreactivity
QVQLVESGGGLVQAGGSLRLSCAASGSTFYTNAMGWYRQAPGKERELVAAISASVGSTYYADSVKGRFTISRDNAKNTVYLQMNSLKPEDTAVYYCAADVWASRRYDYWGQGTQVTVSS | low polyreactivity
QVQLVESGGGLVQAGGSLRLSCAASGSTFYTNPMGWYRQAPGKERELVAAISGSGGSTYYADSVKGRFTISRDNAKNTVYLQMNSLKPEYTAVYYCAARSRYYDTRFDYWGQGTQVTVSS | low polyreactivity
QVQLVESGGGLVQAGGSLRLSCAASGSTFYTYTAMGWYRQAPGKERELVAAITWRGGSTYYADSVKGRFTISRDNAKNTVYLQLNSLKPEDTAVYYCNTVHYYRDYDYWGQGTQVTVSS | high polyreactivity

Sequence | polyreactivity (PSR sort gate)
QVQLVESGGGLVQAGGSLRLSCAASGSTFYVNAMGWYRQAPGKERELVAAIRYSGGRTYYADSVKGRFTISRDNAKNTVYLQMNSLKPEDTAVYYCAATTYYGGLYTREFDYWGQGTQVTVSS | low polyreactivity
QVQLVESGGGLVQAGGSLRLSCAASGSTFYVNAMGWYRQAPGKERYADSVKGRFTISRDNAKNTVYLQMNSLKPEDTAVYYCAAKVPEPPSLDESDYWGQGTQVTVSS | low polyreactivity
QVQLVESGGGLVQAGGSLRLSCAASGSTFYVNDMGWYRQAPGKERELVATISSGSSTYYADSVKGRFTISRDNAKNTVYLQMNSLKPEDTAVYYCAADGVAEEGFDARYDYWGQGTQVTVSS | low polyreactivity
QVQLVESGGGLVQAGGSLRLSCAASGSTFYVNTLGWYRQAPGKERELVAAISGSGTSTYYADSVKGRFTISRDNAKNTVYLQMNSLKPEDTAVYYCNKYQLVRTYGSYSYYYWGQGTQVTVSS | high polyreactivity
QVQLVESGGGLVQAGGSLRLSCAASGSTFYVYAMGWYRQAPGKEREFVAAISFSSGSTYYADSVKGRFTISRDNAKNTVYLQMNMMNQEDTAVYDCAARYRYPRYIGYGYGGAFVYWGQGTQVTVSS | high polyreactivity
QVQLVESGGGLVQAGGSLRLSCAASGSTFYVYAMGWYRQAPGKERELVAAIRGGGSTNYADSVKGRFTISRDNAKNTVYLQMNSLKPEDTAVYYCAKLPYTRTYLGSLYDYWGQGTQVTVSS | high polyreactivity
QVQLVESGGGLVQAGGSLRLSCAASGSTFYVYGMGWYRQAPGKERELVATISSSGAITYYADSVKGRFTISRDNAKNTVYLQMNSLKPEDTAVYYCARTGSLLSQVWYTYWGQGTQVTVSS | low polyreactivity
QVQLVESGGGLVQAGGSLRLSCAASGSTFYWNVMGWYRQAPGKERELVAAINRSDGSTYYADSVKGRFTISRDNAKNTVYLQMNSLKPEDTAVYFCNAVTKHPQSVPYAYGYWGQGTQVTVSS | high polyreactivity
QVQLVESGGGLVQAGGSLRLSCAASGSTFYWYAMGWYRHAPGKEREFVADIDWSGGSTYYADSVKGRFTISLDNAKNTVYLQMNSLKPEDTAVYYCAAVGAAGQDNYWGQGTQVTVSS | high polyreactivity
QVQLVESGGGLVQAGGSLRLSCAASGSTFYWYAMGWYRQAPGKERELVAAIDSGGSTNYADSVKGRFTISRDNAKNTVYLQMNSLKPEDTAVYYCATVYYTIWDPTYEYDYWGQGTQVTVSS | low polyreactivity
QVQLVESGGGLVQAGGSLRLSCAASGSTFYWYAMGWYRQAPGKERELVAAISSGGSTYYADSVKGRFTISRDNAKNTVYLQMNSLKPEDTAVYYCAAQTPYYLWYDTGDYWGQGTQVTVSS | high polyreactivity
QVQLVESGGGLVQAGGSLRLSCAASGSTFYYGMGWYRQAPGKERELVAAISSRGGTTYYADSVKGRFTISRDNAKNTVYLQMNSLKPEDTAVYYCAAPVPYYVPRRNEGDYWGQGTQVTVSS | low polyreactivity
QVQLVESGGGLVQAGGSLRLSCAASGSTFYYNAMGWYRQAPGKEREFVAAINWRGGSTYYADSVKGRFTISRDNAKNTVYLQMNSLTPEDTAVYYCAAEEPSTYYYVRSGYDYHFWEMYSWGQGTQVTVSS | low polyreactivity
QVQLVESGGGLVQAGGSLRLSCAASGSTFYYNAMGWYRQAPGKERELVAAITFTGGSTYADSVKGRFTISRDNAKNTVYLQMNSLKPEDTAVYYCAATIQGHDYLGTGYDYWGQGTQVTVSS | low polyreactivity
QVQLVESGGGLVQAGGSLRLSCAASGSTFYYNGMGWYRQAPGKERELVAAITWTGDSTYYADSVKGRFTISRDNAKNTVYLQMNCLKPEDTAVYYCAAYYRKTGYDYWGQGTQVTVSS | high polyreactivity
QVQLVESGGGLVQAGGSLRLSCAASGSTFYYNTMGWYRQAPGKERELVAAISSSGGTTYYADSVKGRFTISRDNAKNTVYLQMNSLKPEDTAVYYCNVATIWYSYARGYGYWGQGTQVTVSS | high polyreactivity
